Test results reported in paper PMC9394474 (Viruses, 2022).

B1: AAAAALQ (peptide)
peptide: AAAAALQ
B2: hexahistidine-tagged full-length human GYG1, GN1 isoform (natural protein)
chain: MTDQAFVTLTTNDAYAKGALVLGSSLKQHRTTRRLVVLATPQVSDSMRKVLETVFDEVIMVDVLDSGDSAHLTLMKRPELGVTLTKLHCWSLTQYSKCVFMDADTLVLANIDDLFDREELSAAPDPGWPDCFNSGVFVYQPSVETYNQLLHLASEQGSFDGGDQGILNTFFSSWATTDIRKHLPFIYNLSSISIYSYLPAFKVFGASAKVVHFLGRVKPWNYTYDPKTKSVKSEAHDPNMTHPEFLILWWNIFTTNVLPLLQQFGLVKDTCSYVNVEDVSGAISHLSLGEIPAMAQPFVSSEERKERWEQGQADYMGADSFDNIKRKLDTYLQ
notes: also called hsGYG1-GN1; hGYG1-GN1
B3: rabbit glycogenin-1, full length (natural protein)
chain: MTDQAFVTLTTNDAYAKGALVLGSSLKQHRTSRRLAVLTTPQVSDTMRKALEIVFDEVITVDILDSGDSAHLTLMKRPELGVTLTKLHCWSLTQYSKCVFMDADTLVLANIDDLFEREELSAAPDPGWPDCFNSGVFVYQPSVETYNQLLHVASEQGSFDGGDQGLLNTFFNSWATTDIRKHLPFIYNLSSISIYSYLPAFKAFGANAKVVHFLGQTKPWNYTYDTKTKSVRSEGHDPTMTHPQFLNVWWDIFTTSVVPLLQQFGLVQDTCSYQHVEDVSGAVSHLSLGETPATTQPFVSSEERKERWEQGQADYMGADSFDNIKKKLDTYLQ
notes: vector pOPTH; also called rbGYG1; full-length rbGYG1
B4: mouse glycogenin-1, full length (natural protein)
chain: MTDQAFVTLTTNDAYAKGALVLGSSLKQHRTTRRMVVLTSPQVSDSMRKVLETVFDDVIMVDVLDSGDSAHLTLMKRPELGITLTKLHCWSLTQYSKCVFMDADTLVLSNIDDLFEREELSAAPDPGWPDCFNSGVFVYQPSIETYNQLLHLASEQGSFDGGDQGLLNTYFSGWATTDITKHLPFVYNLSSISIYSYLPAFKAFGKNAKVVHFLGRTKPWNYTYNPQTKSVNCDSQDPTVSHPEFLNLWWDTFTTNVLPLLQHHGLVKDASSYLMMEHVSGALSDLSFGEAPAAPQPSMSSEERKERWEQGQADYMGADSFDNIKRKLDTYLQ
notes: also called mGYG1; mGYG

Assays:
Assay in all cases: ITC
Settings in all cases: both partners purified
human hisTRIM7-PRYSPRY = biological target: T1, human hisTRIM7-PRYSPRY (human, UniProt Q9C029 342-511)
T1 construct: vector pOPTH; also called hTRIM7-PRYSPRY; hTRIM7

hisMBP-TRIM7-CC-PRYSPRY = hisMBP-TRIM7-CC-PRYSPRY (human, UniProt Q9C029 165-511)
mouse TRIM7-PRYSPRY = biological target: T2, mouse TRIM7-PRYSPRY (mouse, UniProt Q923T7 342-510)
T2 construct: vector pOPTH; also called mTRIM7; mTrim7-PRYPSRY

Binder	binding result (mouse TRIM7-PRYSPRY)	also measured
B1		Kd (human hisTRIM7-PRYSPRY): 8 µM
B2		stoichiometry N (hisMBP-TRIM7-CC-PRYSPRY): 1
B3	binds	
B4	binds	
